Test results from patent publication US20080193971.

Experiments:
[1] = molecular target: T1, GNA1870 surface-exposed lipoprotein, Q9JXV4
T1 chain: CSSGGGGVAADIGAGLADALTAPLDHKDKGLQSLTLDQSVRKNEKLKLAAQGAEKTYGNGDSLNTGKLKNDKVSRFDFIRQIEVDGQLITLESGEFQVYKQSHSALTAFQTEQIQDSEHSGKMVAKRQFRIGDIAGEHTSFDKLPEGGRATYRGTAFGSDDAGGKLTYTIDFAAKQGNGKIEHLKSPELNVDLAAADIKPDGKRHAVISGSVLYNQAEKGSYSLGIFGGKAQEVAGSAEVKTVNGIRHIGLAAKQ

[2] = molecular target: T2, meningococcal protein 287 (purified)
T2 chain: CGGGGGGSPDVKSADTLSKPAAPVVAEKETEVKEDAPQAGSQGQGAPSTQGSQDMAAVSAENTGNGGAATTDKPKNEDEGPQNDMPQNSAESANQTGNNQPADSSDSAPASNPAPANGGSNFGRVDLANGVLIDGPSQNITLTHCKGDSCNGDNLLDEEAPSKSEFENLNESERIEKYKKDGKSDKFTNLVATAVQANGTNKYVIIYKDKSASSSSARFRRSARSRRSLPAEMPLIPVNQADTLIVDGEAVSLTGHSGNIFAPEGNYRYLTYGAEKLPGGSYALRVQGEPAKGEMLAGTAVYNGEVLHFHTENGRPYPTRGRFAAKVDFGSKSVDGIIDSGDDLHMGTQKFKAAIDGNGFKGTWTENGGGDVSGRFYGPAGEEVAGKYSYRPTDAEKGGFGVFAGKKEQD

[3] = molecular target: T3, recombinant App (Adhesion and penetration protein)
T3 chain: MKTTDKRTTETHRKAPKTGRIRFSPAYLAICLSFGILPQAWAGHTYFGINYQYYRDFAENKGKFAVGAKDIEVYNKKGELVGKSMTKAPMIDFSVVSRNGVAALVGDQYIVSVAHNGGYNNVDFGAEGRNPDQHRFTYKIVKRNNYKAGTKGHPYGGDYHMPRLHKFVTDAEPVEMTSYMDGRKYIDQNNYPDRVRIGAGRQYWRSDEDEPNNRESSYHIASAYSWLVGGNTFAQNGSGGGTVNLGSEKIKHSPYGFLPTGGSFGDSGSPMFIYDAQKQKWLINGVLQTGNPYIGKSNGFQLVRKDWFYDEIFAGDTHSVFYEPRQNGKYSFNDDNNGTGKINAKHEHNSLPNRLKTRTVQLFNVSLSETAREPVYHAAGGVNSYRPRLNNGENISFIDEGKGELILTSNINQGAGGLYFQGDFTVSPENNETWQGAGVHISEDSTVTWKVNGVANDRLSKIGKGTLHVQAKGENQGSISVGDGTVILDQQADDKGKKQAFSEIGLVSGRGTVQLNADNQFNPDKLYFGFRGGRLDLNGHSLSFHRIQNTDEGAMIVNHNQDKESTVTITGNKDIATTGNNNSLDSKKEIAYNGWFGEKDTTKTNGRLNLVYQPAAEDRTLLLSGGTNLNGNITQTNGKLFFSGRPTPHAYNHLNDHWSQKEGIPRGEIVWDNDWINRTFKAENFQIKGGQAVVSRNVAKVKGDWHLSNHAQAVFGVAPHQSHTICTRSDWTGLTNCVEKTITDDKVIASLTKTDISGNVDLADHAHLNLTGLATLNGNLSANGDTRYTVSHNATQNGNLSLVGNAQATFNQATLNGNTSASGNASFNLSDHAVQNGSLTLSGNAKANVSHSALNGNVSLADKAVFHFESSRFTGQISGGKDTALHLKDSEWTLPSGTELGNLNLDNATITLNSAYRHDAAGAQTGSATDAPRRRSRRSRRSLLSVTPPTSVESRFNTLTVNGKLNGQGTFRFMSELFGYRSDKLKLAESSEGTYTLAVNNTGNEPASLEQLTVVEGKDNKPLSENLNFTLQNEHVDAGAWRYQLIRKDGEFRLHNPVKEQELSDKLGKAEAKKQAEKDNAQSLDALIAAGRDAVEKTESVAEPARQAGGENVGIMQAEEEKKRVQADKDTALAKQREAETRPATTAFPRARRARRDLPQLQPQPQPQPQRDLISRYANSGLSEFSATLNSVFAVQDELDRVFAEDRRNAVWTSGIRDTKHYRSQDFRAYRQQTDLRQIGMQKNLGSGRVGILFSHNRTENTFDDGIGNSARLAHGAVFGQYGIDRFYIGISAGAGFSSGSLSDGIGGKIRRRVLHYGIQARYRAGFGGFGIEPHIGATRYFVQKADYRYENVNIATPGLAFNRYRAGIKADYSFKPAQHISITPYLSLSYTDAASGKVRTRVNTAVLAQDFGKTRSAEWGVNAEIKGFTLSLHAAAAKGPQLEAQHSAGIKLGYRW

B1: human lactoferrin (protein)
chain: GRRRSVQWCAVSQPEATKCFQWQRNMRKVRGPPVSCIKRDSPIQCIQAIAENRADAVTLDGGFIYEAGLAPYKLRPVAAEVYGTERQPRTHYYAVAVVKKGGSFQLNELQGLKSCHTGLRRTAGWNVPIGTLRPFLNWTGPPEPIEAAVARFFSASCVPGADKGQFPNLCRLCAGTGENKCAFSSQEPYFSYSGAFKCLRDGAGDVAFIRESTVFEDLSDEAERDEYELLCPDNTRKPVDKFKDCHLARVPSHAVVARSVNGKEDAIWNLLRQAQEKFGKDKSPKFQLFGSPSGQKDLLFKDSAIGFSRVPPRIDSGLYLGSGYFTAIQNLRKSEEEVAARRARVVWCAVGEQELRKCNQWSGLSEGSVTCSSASTTEDCIALVLKGEADAMSLDGGYVYTAGKCGLVPVLAENYKSQQSSDPDPNCVDRPVEGYLAVAVVRRSDTSLTWNSVKGKKSCHTAVDRTAGWNIPMGLLFNQTGSCKFDEYFSQSCAPGSDPRSNLCALCIGDEQGENKCVPNSNERYYGYTGAFRCLAENAGDVAFVKDVTVLQNTDGNNNEAWAKDLKLADFALLCLDGKRKPVTEARSCHLAMAPNHAVVSRMDKVERLKQVLLHQQAKFGRNGSDCPDKFCLFQSETKNLLFNDNTECLARLHGKTTYEKYLGPQYVAGITNLKKCSTSPLLEACEFLRK
proteolytic degradation on meningococci (western blot with anti-GNA1870) [1]: lactoferrin treatment under conditions which degrade App had no effect on ONA1870 | proteolytic cleavage (SDS-PAGE and western blot with rabbit anti-287) [2]: Lane 3 shows definite cleavage of protein 287 | share of N-terminus RSLPAEMPL in the ~19 kDa cleavage fragment [2]: RSLPAEMPL (˜30%) | share of N-terminus SLPAEMPLI in the ~19 kDa cleavage fragment [2]: SLPAEMPLI (˜70%) | proteolytic cleavage (western blot with anti-App) [3]: the App antigen was cleaved in different fragments
